In patent US20140120543A1 (INSTITUTE GUSTAVE ROUSSY, published 2014):

T1: kinesin Eg5 (human, UniProt P52732 1-1056)
T1 construct: Endogenous protein of the human A549 cell line, inside fixed cells; also called encoded by the KIF11 gene
T1 sequence: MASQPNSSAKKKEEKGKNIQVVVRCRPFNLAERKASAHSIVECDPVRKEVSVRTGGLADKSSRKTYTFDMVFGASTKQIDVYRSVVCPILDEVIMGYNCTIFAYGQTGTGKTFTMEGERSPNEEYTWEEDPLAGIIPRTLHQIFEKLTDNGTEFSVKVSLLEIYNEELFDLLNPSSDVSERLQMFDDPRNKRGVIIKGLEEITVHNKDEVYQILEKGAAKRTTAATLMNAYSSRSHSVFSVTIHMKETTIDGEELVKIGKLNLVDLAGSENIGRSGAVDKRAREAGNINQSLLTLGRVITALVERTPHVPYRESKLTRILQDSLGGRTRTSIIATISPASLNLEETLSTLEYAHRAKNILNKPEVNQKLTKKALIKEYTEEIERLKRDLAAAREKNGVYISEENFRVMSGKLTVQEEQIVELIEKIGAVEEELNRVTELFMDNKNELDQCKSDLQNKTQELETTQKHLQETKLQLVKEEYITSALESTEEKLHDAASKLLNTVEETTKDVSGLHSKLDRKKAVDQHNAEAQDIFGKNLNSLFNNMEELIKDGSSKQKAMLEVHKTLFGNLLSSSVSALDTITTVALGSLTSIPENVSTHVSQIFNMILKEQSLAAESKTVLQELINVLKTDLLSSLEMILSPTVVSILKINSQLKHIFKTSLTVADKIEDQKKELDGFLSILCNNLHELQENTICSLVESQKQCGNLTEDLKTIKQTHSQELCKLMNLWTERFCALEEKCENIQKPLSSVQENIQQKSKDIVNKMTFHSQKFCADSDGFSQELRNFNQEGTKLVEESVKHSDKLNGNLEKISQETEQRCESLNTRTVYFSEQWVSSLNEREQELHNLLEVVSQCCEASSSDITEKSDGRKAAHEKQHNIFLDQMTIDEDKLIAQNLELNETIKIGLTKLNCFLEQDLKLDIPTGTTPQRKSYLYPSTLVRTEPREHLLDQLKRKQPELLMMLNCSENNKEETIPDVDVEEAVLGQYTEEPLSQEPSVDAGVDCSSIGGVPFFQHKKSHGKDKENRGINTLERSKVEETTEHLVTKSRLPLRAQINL

T2: protein TRF2 (telomeric repeat-binding factor 2) (human, UniProt Q15554 1-542)
T2 construct: Endogenous protein of the human A549 cell line, inside fixed cells; also called encoded by the TERF2 gene
T2 sequence: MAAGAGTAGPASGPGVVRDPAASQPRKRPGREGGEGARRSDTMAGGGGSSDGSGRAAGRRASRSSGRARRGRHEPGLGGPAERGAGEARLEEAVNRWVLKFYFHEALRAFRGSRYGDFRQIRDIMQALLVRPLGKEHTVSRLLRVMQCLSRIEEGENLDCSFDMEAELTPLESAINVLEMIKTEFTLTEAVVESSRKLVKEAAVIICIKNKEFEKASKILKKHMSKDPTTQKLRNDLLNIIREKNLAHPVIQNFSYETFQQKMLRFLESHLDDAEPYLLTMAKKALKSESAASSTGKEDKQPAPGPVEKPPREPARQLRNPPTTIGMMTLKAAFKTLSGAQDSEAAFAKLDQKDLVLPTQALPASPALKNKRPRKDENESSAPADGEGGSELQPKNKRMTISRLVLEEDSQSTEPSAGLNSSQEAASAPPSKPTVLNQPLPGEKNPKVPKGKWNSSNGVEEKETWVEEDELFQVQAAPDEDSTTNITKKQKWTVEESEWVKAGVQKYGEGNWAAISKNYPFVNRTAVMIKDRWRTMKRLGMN

T3: Fanconi anemia Group G protein FANC G (human, UniProt O15287 1-622)
T3 construct: Endogenous protein of the human A549 cell line, inside fixed cells; also called Fanconi anemia complementation group G
T3 sequence: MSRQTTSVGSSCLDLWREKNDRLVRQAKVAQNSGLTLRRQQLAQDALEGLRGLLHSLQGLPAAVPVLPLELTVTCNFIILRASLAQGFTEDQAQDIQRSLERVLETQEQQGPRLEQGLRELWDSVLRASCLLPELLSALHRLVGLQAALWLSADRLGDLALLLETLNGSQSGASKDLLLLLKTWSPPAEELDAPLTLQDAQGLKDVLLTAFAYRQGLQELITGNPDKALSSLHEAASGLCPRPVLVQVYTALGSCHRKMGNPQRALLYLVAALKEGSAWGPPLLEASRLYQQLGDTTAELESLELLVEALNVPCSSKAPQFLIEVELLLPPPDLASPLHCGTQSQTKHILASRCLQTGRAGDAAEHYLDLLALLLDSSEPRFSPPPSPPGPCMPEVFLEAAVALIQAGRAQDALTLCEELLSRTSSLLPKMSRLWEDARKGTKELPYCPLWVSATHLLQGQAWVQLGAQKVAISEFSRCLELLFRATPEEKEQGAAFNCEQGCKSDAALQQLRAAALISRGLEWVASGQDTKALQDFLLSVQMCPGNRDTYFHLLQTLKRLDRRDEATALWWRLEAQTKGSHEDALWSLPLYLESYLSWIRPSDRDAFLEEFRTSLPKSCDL

T4: DNA repair endonuclease XPF (human, UniProt Q92889 1-916)
T4 construct: Endogenous protein of the human A549 cell line, inside fixed cells; also called encoded by the ERCC4 gene
T4 sequence: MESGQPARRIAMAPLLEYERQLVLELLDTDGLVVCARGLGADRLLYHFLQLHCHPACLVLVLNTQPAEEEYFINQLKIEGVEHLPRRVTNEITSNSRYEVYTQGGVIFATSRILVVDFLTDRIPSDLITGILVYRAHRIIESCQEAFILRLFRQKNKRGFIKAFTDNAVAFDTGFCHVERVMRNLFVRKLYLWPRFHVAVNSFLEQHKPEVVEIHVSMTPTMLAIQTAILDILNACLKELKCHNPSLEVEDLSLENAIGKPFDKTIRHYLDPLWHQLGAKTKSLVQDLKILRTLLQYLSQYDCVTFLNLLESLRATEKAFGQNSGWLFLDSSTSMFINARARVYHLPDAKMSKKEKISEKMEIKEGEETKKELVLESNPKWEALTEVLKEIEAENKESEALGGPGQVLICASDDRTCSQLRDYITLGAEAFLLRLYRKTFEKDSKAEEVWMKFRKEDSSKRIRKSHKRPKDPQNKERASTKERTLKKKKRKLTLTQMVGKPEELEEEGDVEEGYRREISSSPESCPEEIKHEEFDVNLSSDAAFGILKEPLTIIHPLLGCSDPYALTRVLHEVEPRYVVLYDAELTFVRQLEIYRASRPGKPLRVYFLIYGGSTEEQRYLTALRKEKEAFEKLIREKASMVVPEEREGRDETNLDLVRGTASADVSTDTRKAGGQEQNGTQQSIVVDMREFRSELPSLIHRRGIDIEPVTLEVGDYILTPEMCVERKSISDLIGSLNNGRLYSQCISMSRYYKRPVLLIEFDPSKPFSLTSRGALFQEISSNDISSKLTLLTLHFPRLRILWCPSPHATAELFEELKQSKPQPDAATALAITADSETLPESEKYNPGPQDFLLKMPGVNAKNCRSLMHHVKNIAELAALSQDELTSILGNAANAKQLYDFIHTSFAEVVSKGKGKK


Tests used:
kinesin Eg5 = target: T1, kinesin Eg5; test: proximity ligation assay (Duolink), ERCC1 detected with FL297 antibody
Experimental: (§1) ERCC1 was detected using FL297 antibody.
(§2) Protein interactions were studied using the Duolink II proximity ligation assays (PLA) kit (Olink, Uppsala, Sweden). Coverslips were processed according to the manufacturer's instructions. In brief, the cells were fixed with methanol, permeabilized with triton, stained with the primary antibodies, and then incubated with the secondary oligonucleotide-linked antibodies. The oligonucleotides were hybridized, ligated, amplified, and detected using a fluorescent probe.

[1] = target: T2, protein TRF2 (telomeric repeat-binding …); test: as above
Experimental: as §1, §2

[2] = target: T3, Fanconi anemia Group G protein FANC G; test: as above
Experimental: as §1, §2

[3] = target: T4, DNA repair endonuclease XPF; test: proximity ligation assay (Duolink) in ERCC1-deficient A549 cells re-expressing one isoform
Experimental: as §2
Using proximity ligation assays (PLA-Duolink) technology, we investigated the binding ability of ERCC1 isoforms with ERCC1 interacting proteins.

binding result (kinesin Eg5)	binding result [1]	binding result [2]	binding result [3]	Binder
binds	binds	binds		ERCC1-202 isoform (isoform 202 of the ERCC1 protein) (other, Re-expressed in ERCC1-deficient A549 clone 216; Detected inside fixed, permeabilised cells by PLA, not on the cell surface) MDPGKDKEGVPQPSGPPARKKFVIPLDEDEVPPGVAKPLFRSTQSLPTVDTSAQAAPQTYAEYAISQPLEGAGATCPTGSEPLAGETPNQALKPGAKSNSIIVSPRQRGNPVLKFVRNVPWEFGDVIPDYVLGQSTCALFLSLRYHNLHPDYIHGRLQSLGKNFALRVLLVQVDVKDPQQALKELAKMCILADCTLILAWSPEEAGRYLETYKAYEQKPADLLMEKLEQDFVSRVTECLTTVKSVNKTDSQTLLTTFGSLEQLIAASREDLALCPGLGPQKARRLFDVLHEPFLKVP
			no binding	ERCC1-203 isoform (other, Re-expressed in ERCC1-deficient A549 clone 216; Detected inside fixed, permeabilised cells by PLA; also called isoform 203) MDPGKDKEGVPQPSGPPARKKFVIPLDEDEVPPGVAKPLFRSTQSLPTVDTSAQAAPQTYAEYAISQPLEGAGATCPTGSEPLAGETPNQALKPGAKSNSIIVSPRQRGNPVLKFVRNVPWEFGDVIPDYVLGQSTCALFLSLRYHNLHPDYIHGRLQSLGKNFALRVLLVQVDVKDPQQALKELAKMCILADCTLILAWSPEEAGRYLETYKAYEQKPADLLMEKLEQDFVSRSLEQLIAASREDLALCPGLGPQKARRLFDVLHEPFLKVP
			no binding	ERCC1-201 isoform (other, Re-expressed in ERCC1-deficient A549 clone 216; Detected inside fixed, permeabilised cells by PLA; also called isoform 201) MDPGKDKEGVPQPSGPPARKKFVIPLDEDEVPPGVAKPLFRSTQSLPTVDTSAQAAPQTYAEYAISQPLEGAGATCPTGSEPLAGETPNQALKPGAKSNSIIVSPRQRGNPVLKFVRNVPWEFGDVIPDYVLGQSTCALFLSLRYHNLHPDYIHGRLQSLGKNFALRVLLVQVDVKDPQQALKELAKMCILADCTLILAWSPEEAGRYLETYKAYEQKPADLLMEKLEQDFVSRVTECLTTVKSVNKTDSQTLLTTFGSLEQLIAASREDLALCPGLGPQKVRALGKNPRSWGKERAPNKHNLRPQSFKVKKEPKTRHSGFRL
			no binding	ERCC1-204 isoform (other, Re-expressed in ERCC1-deficient A549 clone 216; Detected inside fixed, permeabilised cells by PLA; also called isoform 204) MDPGKDKEGVPQPSGPPARKKFVIPLDEDEVPPGVRGNPVLKFVRNVPWEFGDVIPDYVLGQSTCALFLSLRYHNLHPDYIHGRLQSLGKNFALRVLLVQVDVKDPQQALKELAKMCILADCTLILAWSPEEAGRYLETYKAYEQKPADLLMEKLEQDFVSRVTECLTTVKSVNKTDSQTLLTTFGSLEQLIAASREDLALCPGLGPQKARRLFDVLHEPFLKVP
